# Data: patent US20180230200A1 (CITY OF HOPE, published 2018)
# B1: 2-80 (antibody, V domains shown)
# VH: QIQLVQSGPELKKPGETVKISCKASGYTFTNFGMNWVKQAPGKGLKWMGWINTYTGEPTYADDFKGRFAFSLETSASTASLQINNLKNEDTATYFCARRGDGLYSMDYWGQGTSVTVSS
# VL: DIVLTQSPASLAVSLGQRATISCRASESIDSYGNSFMYWYQQKPGQPPKLLIYRASNLESGIPARFSGSGSRTDFTLTINPVEADDVATYYCQQSNEDPLTFGAGTKLELK
# notes: also called NAb 2-80
# B2: 62-11 (antibody, V domains shown)
# VH: QVQLQQPGAELVRPGASVKLSCKASGYTFTSYWMNWVKQRPGQGLEWIGMIDPSDSETHYNQMFKDKATLTVDKSSSTAYMQLSSLTSEDSAVYYCSNGYSSFAYWGQGTLVTVSV
# VL: DVQMTQTTSSLSASLGDRVTISCSASQGISNYLNWYQQKPDGTVKLLIYDTSSLHSGVPSRFSGSGSGTDYSLTISNLEPEDIATYYCQQYSKLPYTFGGGTKLEIK
# notes: also called NAb 62-11
# B3: 62-100 (antibody, V domains shown)
# VH: B2 VH
# VL: DIVLTQSPATLSVTPGDSVSLSCRASQSISNNLHWYQQKSHESPRLLIKYASQSISGIPSRFSGSGSGTDFTLSINSVETEDFGKYVCQQSNSWPLTFGSGTKLEIK
# notes: also called NAb 62-100
# B4: 21E9 (antibody, V domains shown)
# VH: QIQLVQSGPELKKPGETVKISCKASGYTFTIYGMNWVKQAPGKGLKWMGWINTYTGEPTYADDFRGRFAFSLETSASTAYLQINNLKNEDTATYFCARKGYYGSSGYFDYWGQGTTLTVSS
# VL: SIVMTQTPKFLLVSAGDRVTITCKASQSVSNDVSWYQQKPGQSPKLLIYYASNRYTGVPDRFTGSGYGTDFTFTISTVQAEDLAVYFCQQDYSSPWTFGGGTKLEIK
# notes: also called NAb 21E9
# Biological target: T1, gH/gL/UL128/UL130/UL131A pentamer complex expressed from MVA-PC in BHK-21 cells (human cytomegalovirus, UniProt P12824 24-743; P16832 31-278; P16837 28-171; P16772 1-214; F5HET4 19-129)
# T1 construct: whole, on cells
# Test: FC competition, MVA-PC BHK-21; unlabelled row Ab; competitor: biotinylated AP86
row,Binder,Binding Inhibition (%)
1,B1,0
2,B2,0
3,B3,0
4,B4,0

# Biological target: T1, gH/gL/UL128/UL130/UL131A pentamer …
# Test: FC competition, MVA-PC BHK-21; unlabelled row Ab; competitor: biotinylated 21E9
row,Binder,Binding Inhibition (%)
1,B1,100
2,B2,46
3,B3,51
4,B4,100

# Biological target: gH of HCMV strain TR (human cytomegalovirus strain TR)
# Test: cell-based or functional assay
Binder,"IC50, inhibition of TR cell-to-cell spread in ARPE-19 [mg/L]","IC50, neutralization of TR infection of ARPE-19 [mg/L]","IC50, neutralization of TR infection of HUVEC [mg/L]","IC50, neutralization of TR infection of MRC-5 [mg/L]"
B1,398,2.12,2.54,1.72
B2,395,0.641,0.83,3.35
B3,337,2.13,1.03,1.98
B4,262,0.926,2.92,4.14

# Biological target: gH of HCMV strain TB40/E (human cytomegalovirus strain TB40/E)
# Test: cell-based or functional assay
Binder,"IC50, inhibition of TB40/E cell-to-cell spread in ARPE-19 [mg/L]","IC50, neutralization of TB40/E infection of ARPE-19 [mg/L]","IC50, neutralization of TB40/E infection of CTB [mg/L]","IC50, neutralization of TB40/E infection of HUVEC [mg/L]","IC50, neutralization of TB40/E infection of MRC-5 [mg/L]"
B1,> 400,1.43,> 50,1.41,1.6
B2,87,0.185,2.76,0.102,0.182
B3,103,0.27,3.62,0.156,0.293
B4,157,1.41,42.4,2.37,5.78

# Biological target: T1, gH/gL/UL128/UL130/UL131A pentamer …
# Test: FC competition, MVA-PC BHK-21; unlabelled row Ab; competitor: biotinylated 18F10
row,Binder,Binding Inhibition (%)
1,B1,0
2,B2,0
3,B3,0
4,B4,0

# Biological target: T1, gH/gL/UL128/UL130/UL131A pentamer …
# Test: FC, biotinylated NAb titrated on MVA-PC-infected BHK-21 (cell surface PC)
row,Binder,EC50 [nM]
1,B1,2.8
2,B2,1.7
3,B3,3.3
4,B4,18

# Biological target: T1, gH/gL/UL128/UL130/UL131A pentamer …
# Test: FC competition, MVA-PC BHK-21; unlabelled row Ab; competitor: biotinylated 62-11
row,Binder,Binding Inhibition (%)
1,B1,43
2,B2,100
3,B3,100
4,B4,32

# Biological target: T1, gH/gL/UL128/UL130/UL131A pentamer …
# Test: FC competition, MVA-PC BHK-21; unlabelled row Ab; competitor: biotinylated 2-80
row,Binder,Binding Inhibition (%)
1,B1,100
2,B2,54
3,B3,57
4,B4,100

# Biological target: T2, UL131A expressed from MVA in BHK-21 cells (human cytomegalovirus, UniProt F5HET4 19-129)
# T2 construct: whole, on cells
# Test: intracellular FC, MVA-infected BHK-21
# Experimental: (§1) NAb subunit specificity was evaluated by staining BHK-21 cells infected with different MVA recombinants. One or more vectors were used to co-infect BHK-21 at an MOI of 5. […] Four hours post infection cells were fixed and permeabilized using Cytofix/Cytoperm solution (BD Biosciences). NAbs (1 mg/ml) were diluted 1:500 in perm/wash buffer (BD) and added to the cells for 1 hour at 4° C. […] Cells were washed again and resuspended in PBS/0.1% BSA. Fifteen thousand events were collected using the Gallios Flow Cytometer (Beckman Coulter, Miami, Fla., USA) and analyzed with FlowJo Software (Tree Star, Ashland, Oreg., USA). Uninfected cells and cells infected with MVA-Venus were used as controls. GFP expression was analyzed for confirming MVA infection since all the constructs contain a GFP expression cassette (36, 62).
# (§2) In order to determine the antigen specificity of the vaccine-derived NAbs, intracellular flow cytometry (FC) staining of permeabilized BHK-21 cells infected with MVA expressing single subunits or combinations of two or more subunits of the PC was evaluated.
row,Binder,binding result
1,B1,no binding
2,B2,no binding
3,B3,no binding
4,B4,no binding

# Biological target: T3, UL130/UL131A co-expressed from MVA in BHK-21 cells (human cytomegalovirus, UniProt P16772 1-214; F5HET4 19-129)
# T3 construct: whole, on cells
# Test: intracellular FC, MVA-infected BHK-21
# Experimental: as §1, §2
row,Binder,binding result
1,B1,no binding
2,B2,no binding
3,B3,no binding
4,B4,no binding

# Biological target: T4, UL128/UL130 co-expressed from MVA in BHK-21 cells (human cytomegalovirus, UniProt P16837 28-171; P16772 1-214)
# T4 construct: whole, on cells
# Test: intracellular FC, MVA-infected BHK-21
# Experimental: as §1, §2
row,Binder,binding result
1,B1,no binding
2,B2,no binding
3,B3,no binding
4,B4,no binding

# Biological target: T5, UL128/UL130/UL131A co-expressed from MVA in BHK-21 cells (human cytomegalovirus, UniProt P16837 28-171; P16772 1-214; F5HET4 19-129)
# T5 construct: whole, on cells
# Test: intracellular FC, MVA-infected BHK-21
# Experimental: as §1, §2
row,Binder,binding result
1,B1,no binding
2,B2,no binding
3,B3,no binding
4,B4,no binding

# Biological target: T6, UL128/UL131A co-expressed from MVA in BHK-21 cells (human cytomegalovirus, UniProt P16837 28-171; F5HET4 19-129)
# T6 construct: whole, on cells
# Test: intracellular FC, MVA-infected BHK-21
# Experimental: as §1, §2
row,Binder,binding result
1,B1,no binding
2,B2,no binding
3,B3,no binding
4,B4,no binding

# Biological target: T7, UL128 expressed from MVA in BHK-21 cells (human cytomegalovirus, UniProt P16837 28-171)
# T7 construct: whole, on cells
# T7 sequence: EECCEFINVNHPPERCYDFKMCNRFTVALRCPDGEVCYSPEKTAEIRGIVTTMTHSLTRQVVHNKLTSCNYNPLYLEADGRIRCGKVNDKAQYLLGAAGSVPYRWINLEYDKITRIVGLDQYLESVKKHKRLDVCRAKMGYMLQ
# Test: intracellular FC, MVA-infected BHK-21
# Experimental: as §1, §2
row,Binder,binding result
1,B1,no binding
2,B2,no binding
3,B3,no binding
4,B4,no binding

# Biological target: T8, UL130 expressed from MVA in BHK-21 cells (human cytomegalovirus, UniProt P16772 1-214)
# T8 construct: whole, on cells
# Test: intracellular FC, MVA-infected BHK-21
# Experimental: as §1, §2
row,Binder,binding result
1,B1,no binding
2,B2,no binding
3,B3,no binding
4,B4,no binding
